Source: patent US12281340B2, “Method of producing N-acyl-amino group-containing compound” (AJINOMOTO CO., INC., priority 2018, dated 2025)

Columns and labels:
Assay type in all cases: biochemical
[1] = Synthesis of N-caprinoyl-amino acid derivative, N-caprinoyl-D-amino acid and N-caprinoyl-peptide using purified acylamino acid synthetase, UPLC-MS detection; design: key: +: Detected; −: Not detected; conditions: +ATP
Summary of the method: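 Purified enzyme (50 μg/mL) was incubated with 5 mM sodium caprate, 5 mM amino acid derivative, D-amino acid or peptide, 10 mM ATP, 10 mM MgCl2 and 1 mM DTT in 50 mM Tris-HCl, pH 8.0, for 24 h at 25 °C. After acidic methanol stop, UPLC-MS looked for the mass of the N-caprinoyl product.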

[2] = Synthesis of N-acylamino acids from various fatty acids using purified acylamino acid synthetase, UPLC-MS detection; design: key: +: Detected; −: Not detected
Summary of the method: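 Purified enzyme (200 μg/mL) with 5 mM amino acid, 5 mM sodium fatty acid (3 mM palmitate or stearate, plus 10% methanol), 10 mM ATP, 10 mM MgCl2, 1 mM DTT in 50 mM Tris-HCl pH 8.0, shaken 24 h at 25 °C. Amino acid varied by enzyme; product mass detected by UPLC-MS (ESI-negative).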

[3] = Analysis of ATP dependency of acylamino acid synthetase; conditions: L-Asp and sodium caprate
Description: 0.25 mL of a reaction solution containing 50 mM Tris-HCl, 5 mM amino acid, 5 mM sodium caprate, 10 mM or 0 mM ATP, 10 mM MgCl2, 1 mM DTT, 50 μg of the purified enzyme, pH 8.0 was incubated at 25° C. for 24 hours. As the amino acid, L-Asp and Gly were used in AtGH3-6 and CfHP, respectively. After completion of the reaction, 0.8 mL of the reaction stop solution (1% (v/v) phosphoric acid, 75% (v/v) methanol) was added to 0.2 mL of the reaction solution, and the mixture was filtrated through the filter followed by being subjected to the UPLC-MS analysis to quantify a produced N-caprinoylamino acid by detection at UV 210 nm. The condition for the UPLC-MS analysis is as described in Example 2. As a result of the analysis, 3.8 mM and […] of the N-caprinoylamino acids were detected in AtGH3-6 and CfHP, respectively in the presence of ATP. However, in the absence of ATP, no signal of the molecular weight corresponding to the N-caprinoylamino acid was detected when any of AtGH3-6 and CfHP was used.

B1: AtGH3-6: indole-3-acetic acid-amido synthetase GH3.6 from Arabidopsis thaliana, expressed in E. coli with N-terminal His-tag (protein, listed as Arabidopsis thaliana)
chain: MPEAPKIAALEVSDESLAEKNKNKLQFIEDVTTNADDVQRRVLEEILSRNADVEYLKRHGLEGRTDRETFKHIMPVVTYEDIQPEINRIANGDKSQVLCSNPISEFLTSSGTSGGERKLMPTIEEELDRRSLLYSLLMPVMDQFVPGLDKGKGMYFLFIKSESKTPGGLPARPVLTSYYKSSHFKNRPYDPYTNYTSPNQTILCSDSYQSMYSQMLCGLCQHKEVLRVGAVFASGFIRAIKFLEKHWPELARDIRTGTLSSEITDSSVREAVGEILKPDPKLADFVESECRKTSWQGIITRLWPNTKYVDVIVTGTMSQYIPTLDYYSNGLPLVCTMYASSECYFGVNLRPLCKPSEVSYTLIPNMAYFEFLPVHRNSGVTSSISLPKALTEKEQQELVDLVDVKLGQEYELVVTTYAGLYRYRVGDVLSVAGFKNNAPQFSFICRKNVVLSIDSDKTDEVELQNAVKNAVTHLVPFDASLSEYTSYADTSSIPGHYVLFWELCLNGNTPIPPSVFEDCCLTIEESLNSVYRQGRVSDKSIGPLEIKMVESGTFDKLMDYAISLGASINQYKTPRCVKFAPIIELLNSRVVDSYFSPKCPKWSPGHKQWGSN
modifications: N-terminal His-tag
notes: indole-3-acetic acid-amido synthetase GH3.6 from Arabidopsis thaliana, expressed in E. coli with N-terminal His-tag
- signal of molecular weight corresponding to N-caprinoyl compound ([1]; substrates Carnosine and sodium caprate): +
- signal of molecular weight corresponding to N-caprinoyl compound ([1]; substrates D-Ala and sodium caprate): +
- signal of molecular weight corresponding to N-caprinoyl compound ([1]; substrates D-Asp and sodium caprate): +
- signal of molecular weight corresponding to N-caprinoyl compound ([1]; substrates D-Cys and sodium caprate): +
- signal of molecular weight corresponding to N-caprinoyl compound ([1]; substrates D-Glu and sodium caprate): +
- signal of molecular weight corresponding to N-caprinoyl compound ([1]; substrates D-Ile and sodium caprate): +
- signal of molecular weight corresponding to N-caprinoyl compound ([1]; substrates D-Lys and sodium caprate): +
- signal of molecular weight corresponding to N-caprinoyl compound ([1]; substrates L-Asp-L-Phe and sodium caprate): +
- signal of molecular weight corresponding to N-caprinoyl compound ([1]; substrates L-Gly-L-Gly and sodium caprate): +
- signal of molecular weight corresponding to N-caprinoyl compound ([1]; substrates Sarcosine and sodium caprate): +
- signal of molecular weight corresponding to N-caprinoyl compound ([1]; substrates Taurine and sodium caprate): +
- signal of molecular weight corresponding to N-acylamino acid ([2]; substrates L-Asp and Capric acid): +
- signal of molecular weight corresponding to N-acylamino acid ([2]; substrates L-Asp and Caproic acid): +
- signal of molecular weight corresponding to N-acylamino acid ([2]; substrates L-Asp and Caprylic acid): +
- signal of molecular weight corresponding to N-acylamino acid ([2]; substrates L-Asp and Lauric acid): +
- signal of molecular weight corresponding to N-acylamino acid ([2]; substrates L-Asp and Linoleic acid): −
- signal of molecular weight corresponding to N-acylamino acid ([2]; substrates L-Asp and Palmitic acid): +
- signal of molecular weight corresponding to N-acylamino acid ([2]; substrates L-Asp and myristic acid): +
- signal of molecular weight corresponding to N-caprinoyl amino acid ([3]; in the absence of ATP): no signal
- N-caprinoylamino acid detected ([3]; in the presence of ATP (10 mM), UV 210 nm): 3.8 mM
